{"source": "patent US20190284299A1", "about": "(published 2019)", "binders": {"B1": {"name": "heterodimeric anti-Trop-2/anti-CD3-scFv bispecific antibody (bispecific antibody)", "heavy": "not shown", "light": "DIQLTQSPSSLSASVGDRVSITCKASQDVSIAVAWYQQKPGKAPKLLIYSASYRYTGVPDRFSGSGSGTDFTLTISSLQPEDFAVYYCQQHYITPLTFGAGTKVEIKRTVAAPSVFIFPPSDEQLKSGTASVVCLLNNFYPREAKVQWKVDNALQSGNSQESVTEQDSKDSTYSLSSTLTLSKADYEKHKVYACEVTHQGLSSPVTKSFNRGEC", "scFv": "not shown"}, "B2": {"name": "Anti-Trop-2 mAb (antibody, V domains shown)", "VH": "VQLQQSGSELKKPGASVKVSCKASGYTFTNYGMNWVKQAPGQGLKWMGWINTYTGEPTYTDDFKGRFAFSLDTSVSTAYLQISSLKADDTAVYFCARGGFGSSYWYFDVWGQGSLVTVSS", "VL": "DIQLTQSPSSLSASVGDRVSITCKASQDVSIAVAWYQQKPGKAPKLLIYSASYRYTGVPDRFSGSGSGTDFTLTISSLQPEDFAVYYCQQHYITPLTFGAGTKV"}}, "target": "T1, recombinant human Trop-2 (Sino Biological, Cat. No: 10428-H08H) (human, UniProt P09758 27-274)", "T1 chain": "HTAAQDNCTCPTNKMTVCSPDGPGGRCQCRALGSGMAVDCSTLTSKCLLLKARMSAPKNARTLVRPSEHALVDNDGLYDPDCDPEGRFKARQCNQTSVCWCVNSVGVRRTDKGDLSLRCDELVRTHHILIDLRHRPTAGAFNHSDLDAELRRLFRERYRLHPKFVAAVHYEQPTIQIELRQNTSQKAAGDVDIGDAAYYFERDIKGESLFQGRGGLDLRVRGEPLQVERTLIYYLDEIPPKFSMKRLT", "assay": "ELISA", "data": [{"binder": "B1", "values": [{"measurement": "EC50", "result": 0.28, "unit": "nM"}]}, {"binder": "B2", "values": [{"measurement": "EC50", "result": 0.081, "unit": "nM"}]}]}
